From paper PMC9813358, “Insights into the GSDMB-mediated cellular lysis and its targeting by IpaH7.8” (Nature Communications, 2023)

B1: IpaH7.8 protein (residues 23–565) [Shigella flexneri] / GSDMB (residues 1-411) [human] (parent complex)
chain 1: SNEHYLRILTEWEKNSSPGEERGIAFNRLSQCFQNQEAVLNLSDLNLTSLPELPKHISALIVENNKLTSLPKLPAFLKELNADNNRLSVIPELPESLTTLSVRSNQLENLPVLPNHLTSLFVENNRLYNLPALPEKLKFLHVYYNRLTTLPDLPDKLEILCAQRNNLVTFPQFSDRNNIRQKEYYFHFNQITTLPESFSQLDSSYRINISGNPLSTRVLQSLQRLTSSPDYHGPQIYFSMSDGQQNTLHRPLADAVTAWFPENKQSDVSQIWHAFEHEEHANTFSAFLDRLSDTVSARNTSGFREQVAAWLEKLSASAELRQQSFAVAADATESCEDRVALTWNNLRKTLLVHQASEGLFDNDTGALLSLGREMFRLEILEDIARDKVRTLHFVDEIEVYLAFQTMLAEKLQLSTAVKEMRFYGVSGVTANDLRTAEAMVRSREENEFTDWFSLWGPWHAVLKRTEADRWAQAEEQKYEMLENEYSQRVADRLKASGLSGDADAEREAGAQVMRETEQQIYRQLTDEVLALRLSENGSRLHHS
chain 2: MFSVFEEITRIVVKEMDAGGDMIAVRSLVDADRFRCFHLVGEKRTFFGCRHYTTGLTLMDILDTDGDKWLDELDSGLQGQKAEFQILDNVDSTGELIVRLPKEITISGSFQGFHHQKIKISENRISQQYLATLENRKLKRELPFSFRSINTRENLYLVTETLETVKEETLKSDRQYKFWSQISQGHLSYKHKGQREVTIPPNRVLSYRVKQLVFPNKETMSAGLDIHFRGKTKSFPEGKSLGSEDSRNMKEKLEDMESVLKDLTEEKRKDVLNSLAKCLGKEDIRQDLEQRVSEVLISGELHMEDPDKPLLSSLFNAAGVLVEARAKAILDFLDALLELSEEQQFVAEALEKGTLPLLKDQVKSVMEQNWDELASSPPDMDYDPEARILCALYVVVSILLELAEGPTSVSS

Variants of: B1
Assay: ITC; parent: 94 nM

Variant	Kd [nM]
chain 1 N124A	360
